Results as given in article doi:10.1101/2024.12.23.630205 (bioRxiv, 2024).
“And” between values parts separate entries of the source, which are not always exact repeats. Identical values can stand only once. Each block holds one binder with its values, some of them ahead of it.

B1: hSIRT2 (36-356 aa), purified, thrombin-digested (domain or fragment, human, UniProt Q8IXJ6 36-356, looked up)
chain: ADMDFLRNLFSQTLSLGSQKERLLDELTLEGVARYMQSERCRRVICLVGAGISTSAGIPDFRSPSTGLYDNLEKYHLPYPEAIFEISYFKKHPEPFFALAKELYPGQFKPTICHYFMRLLKDKGLLLRCYTQNIDTLERIAGLEQEDLVEAHGTFYTSHCVSASCRHEYPLSWMKEKIFSEVTPKCEDCQSLVKPDIVFFGESLPARFFSCMQSDFLKVDLLLVMGTSLQVQPFASLISKAPLSTPRLLINKEKAGQSDPFLGMIMGLGGGMDFDSKKAYRDVAWLGECDQGCLALAELLGWKKELEDLVRREHASIDAQS
B4: GST-TULP3 (60-442 aa, construct-2) (domain or fragment, human, UniProt O75386 60-442, looked up)
chain: AKPRASDEQTPLVNCHTPHSNVILHGIDGPAAVLKPDEVHAPSVSSSVVEEDAENTVDTASKPGLQERLQKHDISESVNFDEETDGISQSACLERPNSASSQNSTDTGTSGSATAAQPADNLLGDIDDLEDFVYSPAPQGVTVRCRIIRDKRGMDRGLFPTYYMYLEKEENQKIFLLAARKRKKSKTANYLISIDPVDLSREGESYVGKLRSNLMGTKFTVYDRGICPMKGRGLVGAAHTRQELAAISYETNVLGFKGPRKMSVIIPGMTLNHKQIPYQPQNNHDSLLSRWQNRTMENLVELHNKAPVWNSDTQSYVLNFRGRVTQASVKNFQIVHKNDPDYIVMQFGRVADDVFTLDYNYPLCAVQAFGIGLSSFDSKLACE

How the values were obtained:
[1] = target: B4; test: SPR
[2] = target: T1, hSIRT1 (114-510 aa), purified, thrombin-digested (human, UniProt Q96EB6 114-510, NT-647 fluorescent dye (in the MST only)); test: MST
T1 sequence (looked up): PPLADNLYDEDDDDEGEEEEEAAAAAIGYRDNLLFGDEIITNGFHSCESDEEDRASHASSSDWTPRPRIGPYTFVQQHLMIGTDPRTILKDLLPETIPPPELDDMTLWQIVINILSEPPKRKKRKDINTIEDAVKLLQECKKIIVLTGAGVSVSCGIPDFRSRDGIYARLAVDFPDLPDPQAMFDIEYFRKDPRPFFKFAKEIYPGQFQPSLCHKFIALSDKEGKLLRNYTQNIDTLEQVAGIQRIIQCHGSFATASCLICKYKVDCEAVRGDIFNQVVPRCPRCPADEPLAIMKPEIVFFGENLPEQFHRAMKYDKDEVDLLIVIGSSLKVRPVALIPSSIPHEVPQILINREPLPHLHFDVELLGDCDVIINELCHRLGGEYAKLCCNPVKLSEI

SEC = target: the molecule itself; test: SEC
[3] = target: B1; test: SPR
[4] = target: T1, hSIRT1 (114-510 aa), purified, …; test: SPR
native gel or EMSA = target: the molecule itself; test: native gel or EMSA

Binder: B1
Kd [1]: 66.7 µM and 66.5 µM

Kd [2]: 28 µM
B2: N-terminal hTULP3 (1-148 aa, construct-1), GST tag removed (domain or fragment, human, UniProt O75386 1-148, looked up)
chain: MEASRCRLSPSGDSVFHEEMMKMRQAKLDYQRLLLEKRQRKKRLEPFMVQPNPEARLRRAKPRASDEQTPLVNCHTPHSNVILHGIDGPAAVLKPDEVHAPSVSSSVVEEDAENTVDTASKPGLQERLQKHDISESVNFDEETDGISQ
stoichiometry N (SEC): 2

binding result [3]: binds
B3: GST-tagged N-terminal hTULP3 (1-148 aa, construct-1) (domain or fragment, human, UniProt O75386 1-148, looked up)
chain: MEASRCRLSPSGDSVFHEEMMKMRQAKLDYQRLLLEKRQRKKRLEPFMVQPNPEARLRRAKPRASDEQTPLVNCHTPHSNVILHGIDGPAAVLKPDEVHAPSVSSSVVEEDAENTVDTASKPGLQERLQKHDISESVNFDEETDGISQ

Binder: B4
Kd [4]: 8.1 µM

B5: deleted hTULP3 (60-442 aa, construct-2), GST tag removed (domain or fragment, human, UniProt O75386 60-442, looked up)
chain: AKPRASDEQTPLVNCHTPHSNVILHGIDGPAAVLKPDEVHAPSVSSSVVEEDAENTVDTASKPGLQERLQKHDISESVNFDEETDGISQSACLERPNSASSQNSTDTGTSGSATAAQPADNLLGDIDDLEDFVYSPAPQGVTVRCRIIRDKRGMDRGLFPTYYMYLEKEENQKIFLLAARKRKKSKTANYLISIDPVDLSREGESYVGKLRSNLMGTKFTVYDRGICPMKGRGLVGAAHTRQELAAISYETNVLGFKGPRKMSVIIPGMTLNHKQIPYQPQNNHDSLLSRWQNRTMENLVELHNKAPVWNSDTQSYVLNFRGRVTQASVKNFQIVHKNDPDYIVMQFGRVADDVFTLDYNYPLCAVQAFGIGLSSFDSKLACE
stoichiometry N (native gel or EMSA): 2
